The values below come from patent US20250154231A1 (RQBIO COVID, published 2025).

Read-outs that look alike come from different tables or passages of the source.

Test [1] has as its target T1, Omicron BA.2 RBD (SARS-CoV-2, UniProt P0DTC2 333-528).
The target in test [2] is T2, Omicron BA.1 RBD (SARS-CoV-2, UniProt P0DTC2 333-528).
T2 construct: domain: RBD
The experiment in a line: ELISA. Background: In an ELISA, binding on a coated surface is turned into a signal by an enzyme label.

Test [3] addresses T1, Omicron BA.2 RBD. This is another data set of the same source.
The target in test [4] is T1, Omicron BA.2 RBD. This is another data set of the same source.

B1: Omi-20 Fab (Fab, V domains shown)
VH: EVQLVESGGGLVQPGGSLRLSCEASEITVSSNYMNWVRQAPGKGLEWVSVLFAGGTTYYADSVKGRFTISRDNSKNTLYLQMNTLRIEDTAIYYCARDLVAYGVDVWGQGTTVTVSS
VL: AIQMTQSPSFLSASVGDRVTITCRASQGISGDLAWYQQKPGKAPKLLIYAASTLQSGVPSRFSGSGSGTEFTLTISSLQPEDFATYYCQHLNSYPLTFGGGTKVEIK
Broadly, the Kd is the equilibrium constant for the complex coming apart. Broadly, the koff is the rate constant with which the complex falls apart. Read a high koff as a short-lived complex. The kon is a measure of how fast the partners come together. A higher kon goes with fast association. On to B1, for which, in test [1], the Kd stood at 138 nM, the T1/2 is 3.2 min, the koff was 0.0036 s⁻¹ and the kon amounted to 26000 M⁻¹ s⁻¹.

B2: Omi33 (antibody, V domains shown)
VH: EVQLLESGGGVVQPGRSLRLSCAASGFKFSDYGMHWVRQAPGKGLEWVAVYWYDGGTKFYADSVKGRFTISRDNSKNTLYLQMSSLRVEDTAVYYCARDTAPPDYWGQGTLVTVSS
VL: EIVLTQSPGTLSLSPGERATLSCRASQSISSNFLAWYQQKPGQAPRLLIYGASSRATGIPDRFSGSGSGTDFTLTISRLEPEDFAVYYCQQYGTSPRLTFGGGTKVDIK
With B2, the binding result in test [2] is listed as “binds”.

B3: Omi28 (antibody, V domains shown)
VH: EVQLVESGGGLVQPGGSLRLSCAASGVIVSSNYMSWVRQAPGKGLQWVSVIYSGGSTFYADSVKGRFTISRDNSKNTLYLQMNSLRAEDTAVYYCARDLLEAGGTDYWGQGTLVTVSS
VL: DVVMTQSPGTLSLSPGERATLSCRASQFIGSSYLAWYQQKPGQAPRLLIYGASNRATGVPDRFSGSGSGTDFTLTISRLEPEDFAVYYCQQYGSAPGTFGQGTKVEIK
For B3, the binding result in test [2] is reported as “binds”.

B4: Omi24 (antibody, V domains shown)
VH: QVQLVESGAEVKKPGSSVKVSCKASGGTFSSHGVIWVRQAPGQGLEWMGGIIPIFPTANYAQKFQGRVTITADKPSNTAYMELSSLRSEDTAVYYCARARGEHDSVWGSFHYYFDYWGQGTLVTVSS
VL: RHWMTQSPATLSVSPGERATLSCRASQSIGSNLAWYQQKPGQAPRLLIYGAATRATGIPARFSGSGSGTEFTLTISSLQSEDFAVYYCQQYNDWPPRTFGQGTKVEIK
In the case of B4, the binding result in test [2] was “binds”.

B5: Omi16 (antibody, V domains shown)
VH: EVQLVESGGGVVQPGGSLRLSCAASGIIVSANYMTWVRQAPGKGLEWVSVIYPGGSTFYADSVKGRFTISRDNSKNTLYLQMNSLRVEDSAVYYCARDLELAGFNDFWGQGTLVTVSS
VL: DVVMTQSPGTLALSPGERATLSCRTSQSVSSNYLAWYQQKPGQAPRLLIYGASSRATGIPDRFSGSGSGTDFTLTISRLEPEDFAVYYCQQFGSSPRYTFGQGTKVEIK
Regarding B5, the binding result in test [2] is “binds”.

B6: Omi17 (antibody, V domains shown)
VH: QVQLVESGGGVVQPGGSLRLSCAASGVTVSSNYMSWVRQAPGKGLEWVSVLYAGGSTFYADSVKGRFTISRDNSKNTLYLQMNSLRAEDTAAYYCARDLAVAGFLDSWGQGTLVTVSS
VL: DIVMTQSPGTLSLSPGERATLSCRASQGVSSIYLAWYQQKPGQAPRLVLYGASSRATGIPDRFSGSGSGTDFTLTISRLEPEDFAVYYCQQYGSSPRYTFGQGTKVEIK
Turning to B6, the binding result in test [2] is listed as “binds”.

B7: Omi38 (antibody, V domains shown)
VH: QVQLVESGAEVKKPGSSVKVSCKASGGNFNMYTISWVRQAPGRGLEWMGRFIPIANKANYAQNFPGRVTITADKSTSTVYMELRSLTSDDTAVYYCARSGSYDAFDVWGQGTMVTVSS
VL: AIRMTQSPSTLSASVGDRVTITCRASQTINSWLAWYQQKPGKAPKLLIYDASNLESGVPSRFSGSGSGTEFTLTISSLQPDDFATYYCQQYESYSPITFGQGTRLEIK
With B7, in test [2], the binding result is on record as “binds”.

B8: Omi34 (antibody, V domains shown)
VH: QVQLVQSGAEVKKPGSSVKVSCKASGGTFSSYGIRWVRQAPGQGLEWMGGIIPVFGATNYAQKFQDRVTITADKSTATAYMELSSLKSDDTAVYFCARDALSASGWTGPFDSWGQGTLVTVSS
VL: QSVLTQPPSVSGAPGQRVTISCTGSSSNIGADYDVHWYQQLPGAAPKLLIYGNNNRPSGVPDRFSGSKSGTSASLAITGLQAEDEADYYCQSYDSSQNAFYVFGTGTKVTVL
Turning to B8, the binding result in test [2] is listed as “binds”.

B9: Omi-18 Fab (Fab, V domains shown)
VH: QVQLVESGGGLIQPGGSLRLSCAASGITVSSNYMTWVRQAPGKGLEWVSLLYAGGSAFYADSVKGRFTISRDNSKNTLYLLMNSLRVGDTAVYYCARDLQVYGMDVWGQGTTVTVSS
VL: SYELTQPPSVSVAPGQTARITCGGNNDGAKSVHWYQQKPGQAPVLVVYDDSDRPSGIPERFSGSNSGNTATLTITRIEAGDEADYYCQVWDSSRDHVFGTGTKVTVL
In test [3], B9 displayed a Kd of 4.3 nM, a T1/2 of 20 min, a koff of 0.00057 s⁻¹ and a kon of 130000 M⁻¹ s⁻¹.

B10: Omi29 (antibody, V domains shown)
VH: QVQLVESGGGLVQPGGSLRLSCAASGLIVSRNYMSWVRQAPGKGLEWVSLIYAGGSTFYSDSVKGRFTISRHSSENTLFLQMNSLRAEDTAVYYCARDLVHYGMDVWGQGTTVTVSS
VL: NFMLTQPASVSGSPGQSITISCTGTSSDVGGYNYVSWYQQHPGKAPKLMIYDVSNRPSGVSNRFSGSNSGNTASLTISGLQAEDEADYYCSSYTSGSTWVFGGGTKLTVL
As for B10, in test [2], the binding result is given as “binds”.

B11: Omi39 (antibody, V domains shown)
VH: QVQLVESGGVVVQPGGSLRLSCAASGFSFDDYSMHWVRQAPGKGLEWVSVIYWDGVSKYYADSVKGRFTISRDNSKNSLYLQMNSLRTEDTAVYYCAKDSEDCSSTSCYMDVWGKGTTVTVSS
VL: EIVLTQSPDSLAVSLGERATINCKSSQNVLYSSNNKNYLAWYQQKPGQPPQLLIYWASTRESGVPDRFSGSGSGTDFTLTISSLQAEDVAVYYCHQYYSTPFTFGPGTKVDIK
In the case of B11, the binding result in test [2] was “binds”.

B12: Omi08 (antibody, V domains shown)
VH: EVQLVESGAEVKRPGASVKVSCKASGYTFTNYFMHWVRQAPGQGLEWMGVINPSDGGASYPQKFQGRVTMTRDTSTSTVYMDLSSLRSEDTAVYSCARGAFDVSGSWYVPFDYWGQGTLVTVSS
VL: QSVVTQPPSVSGAPGQRVTISCTGSSSNIGAGYDVHWYQQLPGAAPKLLIYGNTNRPSGVPDRFSGSKSGTSASLAITGLQAEDEADYYCQSYDITLSGSGYVFGTGTKVTVL
For B12, the binding result in test [2] was “binds”.

B13: Omi30 (antibody, V domains shown)
VH: EVQLVESGAEVKKPGSSVKVSCKASGGTFSRYAISWVRQAPGQGLEWMGGIIPIFDATNYAQKFHDRVTITADKSASTAYMELSSLRSDDTAVYYCARERTYCSGGTCYGGYFYYGMDVWGQGTTVTVSS
VL: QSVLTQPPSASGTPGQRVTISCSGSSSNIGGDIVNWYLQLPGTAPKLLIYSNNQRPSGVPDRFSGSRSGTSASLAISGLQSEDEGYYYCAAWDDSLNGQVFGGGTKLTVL
In the case of B13, the binding result in test [2] is listed as “binds”.

B14: Omi23 (antibody, V domains shown)
VH: QVQLQESGPGLVKSSQTLSLTCTVSGDSISRGGYYWSWIRQHPGKGLEWIGSIYYSGSTYYNPSLKSRFTISVDTSKNQFSLKLSSVTAADTAVYHCAREIGFLDYWGQGTLVTVSS
VL: AIQMTQSPSSLSASVGDRVTITCRASQAISNSLAWYQQKPGKAPKLLLYAASTLESGVPSRFSGSGSGTDFTLTISSLQPEDFATYFCQQYYSTPPRTFGQGTKVDIK
Take B14: the binding result in test [2] is “binds”.

B15: Omi25 (antibody, V domains shown)
VH: QVQLVESGGGLVQPGRSLRLSCAASGFTFDDYAMHWVRQVPGKGLEWVSGISWNSGSIVYADFVKGRFTIARDNAKNSLFLQMNSLRAEDTALYYCAKSTALRHQYYYGMDVWGQGTTVTVSS
VL: AIQMTQSPSSLSASVGDRVTITCRTSQTISSYLNWYQQKPGKAPKLLIYDASSLQSGVPSRFSGSGYGTDFTLTISSLQPEDFATYFCQQSYNTPYAFGQGTKVEIK
For B15, in test [2], the binding result is recorded as “binds”.

B16: Omi12 (antibody, V domains shown)
VH: EVQLVESGPEVKKPGTSVKVSCKASGFSFSMSAMQWVRRARGQRLEWIGWIVPGSGNANYAQKFQERVTITRDESTNTGYMELSSLRSEDTAVYYCAAPHCNKTNCYDAFDIWGQGTMVTVSS
VL: AIRMTQSPGTLSLSPGERATLSCRASQSVRSSYLAWYQQKPGQAPRLLIYGASTRATGIPDRFSGSGSGTDFILTINRLEPEDLAVYYCQQFGSSPWTFGQGTKVDIK
In test [4], B16 came in with a Kd of 0.13 nM, a T1/2 of 20 min, a koff of 0.00058 s⁻¹ and a kon of 4.3e+06 M⁻¹ s⁻¹.

B17: Omi35 (antibody, V domains shown)
VH: QVQLVESGGGLVQPGRSLRLSCAASGFTFDDYAMHWVRQAPGKGLEWVSGSTWNSGTIDYADSVKGRFTISRDNAKNSLYLQMNSLRAEDTALYYCAKDRFRKGCSSTGCYKENYGMDVWGQGTTVTVSS
VL: QSVVTQPPSVSVAPGQTARITCGGTNIGSKSVHWYQQKPGQAPVLVVYDDSDRPSGIPERFSGSNSGNTATLTITWVEAGDEADYYCQVWDSSSDNVLFGGGTKLTVL
Turning to B17, in test [2], the binding result is on record as “binds”.

B18: Omi27 (antibody, V domains shown)
VH: EVQLLESGGGLVQPGGSLRLSCVASGLTVSSNYMSWVRQAPGKGLEWVSIIYPGGTTYYADSVKGRFTTSRDKSKNTLYLQMNSLRAEDTAVYYCARDLAVAGGMDVWGQGTTVTVSS
VL: EIVMTQSPSSLSASVGDRVTITCRASQGIGNDLGWYQQKPGKAPKVLIYAASNLQSGVPSRFSGSGSGTDFTLTISSLQPEDFATYYCLQDSNYPYTFGQGTKVEIK
Regarding B18, the binding result in test [2] is recorded as “binds”.

B19: Omi02 (antibody, V domains shown)
VH: EVQLVESGAEVKKPGSSVKVSCKASGGTFSSYAINWVRQAPGQGLEWMGGIIPIFRTPHYAQKFQGRVTITADESTGTAYMELSSLRSEDTAVYYCASPSCGGDCPQYLKSSKLDWYFDLWGRGTLVTVSS
VL: VIWMTQSPGTLSLSPGERATLSCRASQSVSSTYLAWYQQKPGQAPRLLIYGASSRATGIPDRFSGSGSGTDFTLTISRLEPEDFAVYYCQHYGSSPLTFGQGTRLEIK
As for B19, the binding result in test [2] is “binds”.

B20: Omi09 (antibody, V domains shown)
VH: QVQLVESGGGVVQPGRSLRLSCAASGFTFRTYAVHWVRQAPGKGPEWVAVISYDGSNKYYADSVKGRFTLSRDTSKNTLYLQMNSLRAEDTAVYYCASRGDTVTTGDAFDIWGQGTMVTVSS
VL: SYELTQPPSVSVSPGQTARITCSGDALPKQYTYWYQQKPGQPPVLVIYKDSERPSGIPERFSGSSSGTTVTLTISGVQAEDEADYYCQSTDSSATYPGNVVFGGGTKLTVL
As for B20, the binding result in test [2] is on record as “binds”.

B21: Omi26 (antibody, V domains shown)
VH: QVQLVQSGTEVKKPGASVKVSCKASDYTFTRFGIIWVRQAPGQGLEWMGQINPYNGNTDYAQKFQGRVTLTTDTSTNTAYMELRSLRSDDTAVYYCARSAGSPTGLDYWGQGTLVTVSS
VL: QSVVTQPPSVSEAPRQRVTISCSGSNSNIGNNAVNWYQQLPGKAPKLLVYYDDLLPSGVSDRFSGSKSGTSASLAISGLQSEDKADYYCAAWDDSLNALVFGGGTKLTVL
Regarding B21, the binding result in test [2] is on record as “binds”.
